In the supplement of paper PMC10567573 one finds protein stability index data, which are given here for 53 sequences.

± gives the standard deviation.

A short description of this data set: protein stability index of a GFP-peptide fusion (GPS, HEK-293T) (PSI 1-6); higher = more stable.
Setting [1] is: treatment: DMSO, c terminus: a fixed tail appended.
The mark [2] stands for this setting: treatment: MLN4924 1 uM, 8 h, c terminus: a fixed tail appended.
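Note: 24-mer peptide tiles fused after GFP, lentivirally expressed, FACS-sorted into six equal bins by GFP/DsRed ratio, decoded by Illumina sequencing, PSI is the read-weighted mean bin number.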

On to TYRSLLESEDCKLPCNPCATTNAS [KRT34], for which the protein stability index stood at 3.9 ± 0.25 under setting [1] and 4.09 ± 0.2 under setting [2].
On to TYRSLLESEDCKLPSNPCATTNAC [KRT33B], for which the protein stability index was 3.99 ± 0.26 under setting [1] and 4.04 ± 0.072 under setting [2].
The matching figures for VCRTEGTPHMLLDLSDLLQVDSLR [BRF1]: 2.31 ± 0.23 and 2.29 ± 0.3.
As to VDENDSHEGEDQFLSLEASTETLV [DLC1], the protein stability index was found to be 5.66 ± 0.16 under setting [1] and 5.56 ± 0.2 under setting [2].
Consider VDLFKQLCEKEPLGNVLFSPICLS [SERPINB5], for which the protein stability index by setting is: under setting [1], 1.98 ± 0.18; under setting [2], 2.08 ± 0.41.
Regarding VDRTHALMKKIGQCPMRVQKEVAG [CRYL1], the protein stability index by setting is: under setting [1], 3.45 ± 0.36; under setting [2], 3.65 ± 0.35.
VDWRRVSRLQEDPEGTENPLGVDE [SLA] gave a protein stability index under setting [1] of 4.46 ± 0.36.
As to VERILARGENLEHLRNKTEDLEAT [VAMP8], the protein stability index came out at 5.33 ± 0.2 under setting [1] and 5.37 ± 0.14 under setting [2].
On the same counts, the results for VESSLDKVVLSDAYAHPQQKVAVY [TRADD] are 2.88 ± 0.29 and 3.26 ± 0.12.
On the same counts, the results for VFGVPLTVNVQRTGQPLPQSIQQA [DLC1] are 2.79 ± 0.2 and 3 ± 0.43.
Consider VFNAARDGKLRLLTKLLASKSKEE [FEM1C], for which the protein stability index runs as follows: under setting [1], 2.48 ± 0.21; under setting [2], 2.75 ± 0.3.
VFVCRVSAVLFYVNMYVSIVFFGL [P2RY14]: the protein stability index is, setting by setting: under setting [1], 3.36 ± 0.33; under setting [2], 3.35 ± 0.54.
The matching figures for VFVLIDEVESLTAARNACRAGTEP [TRIP13]: 2.35 ± 0.2 and 2.63 ± 0.36.
The matching figures for VGEFPIISPGRVYEYTSCTTFSTT [FBXO3]: 2.3 ± 0.22 and 2.33 ± 0.32.
As to VGVDGVRAFLQTYSHEVSLTADSR [PCDHGA10], the protein stability index amounted to 2.49 ± 0.37 under setting [1] and 2.61 ± 0.39 under setting [2].
VHNAMDNYECNLYTFLYLVCISTK [FEM1B]: the protein stability index by setting is: under setting [1], 2.82 ± 0.59; under setting [2], 2.2 ± 0.53.
The matching figures for VHRDLKPENLLLASKCKGAAVKLA [CAMK2B]: 2.83 ± 0.38 and 2.75 ± 0.25.
Regarding VHRKSCSTGEAGTDGDHNVYPRPP [ZC2HC1C], the protein stability index is, setting by setting: under setting [1], 4.29 ± 0.33; under setting [2], 4.45 ± 0.37.
The matching figures for VILFSSAVYFAEADDPTSGFSSIP [KCNA3]: 3.01 ± 1.6 and 2.56 ± 1.1.
For the sequence VKGRVRCLTAGPEVAAQLPAVRQL [ZSWIM9], the protein stability index reads like this: under setting [1], 3.19 ± 0.18; under setting [2], 3.12 ± 0.43.
VKKKKEEGVIDSSDKEIVAEAERL [EIF5]: the protein stability index came to 5.04 ± 0.59 under setting [1] and 5.46 ± 0.2 under setting [2].
The sequence VKLNVGGSLHYTTLRTLTGQDTML [KCTD13] showed a protein stability index under setting [1] of 2.45 ± 0.47 and a protein stability index under setting [2] of 2.27 ± 0.28.
On the same counts, the results for VKLPLPAERVTLADFKGVLQRPSY [DVL3] are 2.5 ± 0.19 and 2.73 ± 0.36.
On the same counts, the results for VKYNSCADRPFSAPWWFWLSLTGV [POMT2] are 2.59 ± 0.35 and 2.72 ± 0.6.
VLDILTRLPESVERLTGVSISQVN [FLOT1]: the protein stability index is, setting by setting: under setting [1], 2.43 ± 0.23; under setting [2], 2.3 ± 0.48.
The matching figures for VLEVTEESIDFDQGELADQDVDPV [FBXO33]: 5.34 ± 0.19 and 5.57 ± 0.2.
Take VLFLDHVMYTIHMGCHGFRDPFEC [IKZF1]: the protein stability index is 3 ± 0.26 under setting [1] and 2.96 ± 0.49 under setting [2].
In the case of VLRGRLYAIAGYDGNSLLSSIECY [KLHL12], the protein stability index runs as follows: under setting [1], 1.91 ± 0.14; under setting [2], 2.28 ± 0.13.
On the same counts, the results for VLRTYLELVLCVLVSIRNNRNLQK [FBXO33] are 2.96 ± 0.71 and 2.64 ± 0.51.
VPKDQRLQAIKAAIMLLPDENREV [DLC1]: the protein stability index came to 3.82 ± 0.18 under setting [1] and 3.85 ± 0.42 under setting [2].
The matching figures for VQLATLAQRVKEVLPHVPLGVIQR [AUP1]: 2.51 ± 0.16 and 2.19 ± 0.29.
The matching figures for VQSLQLSPRTRGSWSQPQPLKAPC [RASAL3]: 3.54 ± 0.41 and 3.68 ± 0.098.
In the case of VQYLGQAPELLGGAEPGTYLTGTI [ADAMTS4], the protein stability index runs as follows: under setting [1], 2.33 ± 0.7; under setting [2], 2.98 ± 0.72.
For VRANDINYQDQIPRTLEEFVGFH [FEM1B], the protein stability index is 3.21 ± 0.16 (treatment: DMSO, c terminus: native) and 3.2 ± 0.48 (treatment: MLN4924 1 uM, 8 h, c terminus: native).
On to VRENVPRVLNSAKEKSSTVPIPTV [SOAT1], for which the protein stability index is, setting by setting: under setting [1], 4.161 ± 0.036; under setting [2], 4.16 ± 0.14.
Regarding VRKPAEAERYKLERLAEAEKSQLI [FLOT1], the protein stability index reads like this: under setting [1], 4.46 ± 0.26; under setting [2], 4.49 ± 0.14.
With VSCGFGGGAGSGFGGGYGGGLGGG [KRT13], the protein stability index is 2.32 ± 0.35 under setting [1] and 2.2 ± 0.5 under setting [2].
On the same counts, the results for VSIIDTELKVKDSQPIDLSACTVA [TRIP13] are 3.28 ± 0.45 and 3.33 ± 0.29.
On to VSITLLALVYLPGVIAAIVQLHNG [STEAP1], for which the protein stability index is, setting by setting: under setting [1], 3.5 ± 0.33; under setting [2], 3.11 ± 0.14.
VSPPESPTVTTSWQSESLPVSLSA [BCL2L13]: the protein stability index is, setting by setting: under setting [1], 4.43 ± 0.08; under setting [2], 4.37 ± 0.27.
Consider VSTVSHADADCFVCVFLSHGEGNH [CASP6], for which the protein stability index was found to be 2.37 ± 0.2 under setting [1] and 2.18 ± 0.17 under setting [2].
The sequence VTFRDVAVDFTQEEWGQLDPTQRI [ZNF8] came in with a protein stability index under setting [1] of 3.8 ± 0.36 and a protein stability index under setting [2] of 3.82 ± 0.33.
The matching figures for VTLLVALKVRYRERITILRGNHES [PPP2CA]: 2.78 ± 0.5 and 2.67 ± 0.44.
The matching figures for VTVRVPTHEEGSYLFWEFATDNYD [ACBD3]: 2.19 ± 0.34 and 2.31 ± 0.62.
As for VVEKLNLFLDLLQSYKDLCERHEK [SNX8], the protein stability index came out at 2.19 ± 0.32 under setting [1] and 2.23 ± 0.25 under setting [2].
Regarding VVENAEKILGYLNTNVLSRDLIPP [SLC6A17], the protein stability index reads like this: under setting [1], 2.82 ± 0.15; under setting [2], 2.84 ± 0.38.
The matching figures for VVFPYTSKSCMRAVLEYLYTGMFT [RHOBTB2]: 2.81 ± 0.42 and 2.77 ± 1.1.
As for VVTMTTVGYGDMHPVTIGGKIVGS [KCNA3], the protein stability index was found to be 2.33 ± 0.4 under setting [1] and 2.37 ± 0.45 under setting [2].
The matching figures for VVYSKAASVPKVETVKSDNKDDDI [EIF5]: 5.23 ± 0.13 and 5.19 ± 0.11.
As for VWDASRAPRGTPDPGLGEGPALWL [PLEKHN1], the protein stability index was 2.74 ± 0.25 under setting [1] and 2.79 ± 0.38 under setting [2].
The matching figures for VYKDGEHGEEQRITIEPGTSYRLQ [PTPRD]: 4.81 ± 0.15 and 5.03 ± 0.16.
On the same counts, the results for VYSQASTMSIPVAMETDGPLFEDV [PPP2R5C] are 3.94 ± 0.31 and 4.14 ± 0.15.
VYTGKLLLNLVDHTEVVRDLTFAP [WSB1]: the protein stability index by setting is: under setting [1], 2.2 ± 0.28; under setting [2], 2.36 ± 0.35.
